The data set is described as follows: soluble on expression in E. coli; label from the status in PepcDB or PDB records.
Turning to “MQSYTNRICAVCGDTPAKIHYGVLACFGCKGFFRRAVKDGRNKYVCRFEKNCEVTKFERNACRYCRFRKCLLVGMNPDYVRPDREKSKKGKTVLSKKKSVSRSLSYRLADPSDWTSFLSPSSRKQLSEIGKLAETCSTSTNFDGIGNFSLKSLIADRSLARKTGDSEAMDCSNSPRQLNEQFLGIERIVQCVDYIDRFLVMLEEEHCRKFSVEDKSALISDTMIHLLLFESTSRFVAKGAPGLEDLKLSLAQLPICTTHLTQKIADVFETYLRKPPSIIEYSVLKAYIVLSAESTVLSNSLNESLSLARENLSELLFKVIKHSRNKTSISAANSLSTILHFVYESRNLASRIRQSQQPFFVRDSDPKIPFHKILTDIINPEVSDLLLTTANCRKLSTQMGSSLSSVPPVPPPSDTVPLFHFSPPSLSPCQISAPPPPQQQYTDYSQMPSTSSYPANSSPFQSPYRPNSLSSFPKIPLEMTKSIEEFLRPNGMTTDEMNKPLEKNWADGFRLTPVFNKDIVSQFFPELSNINQHHPF”, the “soluble on expression in E. coli” value is “not soluble”.

Regarding “MSLAPINPYPLLQACQRQRVSDGAIAPVLAGTESSDRLLVLIWPQLGDFDSLEYAQWLQREQDQIQQLGLTIRAVGIGDRDSGQRFCEFTGFPADQLFVDPTASLHQELELYPGLQLSIPGFSPAAKAWLNLLLMCAGIGSPGTLAEVLRGYRGDRSAPQLIAAEETVQAAPLPPIKGNFFNLAGGSGFQRPMELATLRLRNMAESLGHWRTYVPDTSYMTQRGGTFLFDRDRQLIYEHRDHGILGFSATMNRPLSFLDNLPTPSTASEGHHHHHH”, the “soluble on expression in E. coli” value is reported as “soluble”.

Take “MGSDKIHHHHHHMIDLKRNSKKIPIEATGLRSRKSSLYEPNQKEDFKISRGRFSNFLTCQRCFYLDRVRGLDPPGTPGWTLNETTDLLLKKEFDYCRQKQIPHRIFASNGLSHVVPFDHPEIDNWRNSLNRGLMHRYKDTGIILTGGVDDIWQDTITEQLIIVDYKSQAKNGRVDKKDYLDDPFHEAYKIQMDFYAYLLSGMGFSVHPTSYFLVCNAKRDEDEFNKTMRFDEYLVPYKWNNDWIESRLDEMVALMNQLEVPESNHSCKNCAYADQYSKIIFSGNTSQKEITQGTLPLF”: the “soluble on expression in E. coli” value is “not soluble”.

With “KRAGTVCSNCQTSTTTLWRRSPMGDPVCNACGLYYKLHQVNRPLTMRKDGIQTRNRKVSSKGKKRR”, the “soluble on expression in E. coli” value is on record as “soluble”.

For “MPKTQGLSPESLISQFARCEEGWCVQYHDVILASAFQPVISITHKRVVGYEALVRATDANNAQISPDTLFARAQARGETILLDRLTRCLHVANFSEQDTGSCWLFLNVLPQMFDAGIAPSVFIEALCAHFALPPTRVVLEVIEQPSRNEPALARTLDMIQHGDFLIAVDDFGTGFSNFDRIWQIKPDIVKLDRSILERSLAASDAHRIVHHLVTMLHHAGTMVLAEGVENEDALQILMDADVDFVQGFCFGLPDPSLERARRAAPARIETAWQRFAERVKERRGDVVHPGFDTIERIVLAGAADYAQARDLRGAAQRLLTNPIVRRVFVAEANGEQVEPSVTNETPDTPSATTRRLAPLLPELHCNWSRRAYFQRAVAAPGRVALMGPHFSLTDGRDCYTAAVAIHLGTTLKVFCVDFDFSSYGDGQ”, the “soluble on expression in E. coli” value is given as “not soluble”.

For the sequence “MAHHHHHHMMLRSHVGYDDLQNGGSDQPVSFLRSAAGRTYLADGSSALSSAQLTAAQKLLPLTDRSSQAALDAARLEPPIEHASVMYHGCQQAVLNAELREKVEAHYKHWSSRVEELQALLSDLPTESALHSTRAVENLHSYLGAYRCTEDMLVTPSEVVEQHALRTPVPEIDVMFQMPAIPMDTMRRALDDLLRSPYLLAPLDTHLAHLSLLDKLGQLSWSGEGEVTAPLSKKPRGKRAVARKDCTVDESNETGVVLQAEEAAAEEDIYPSRAAVAMHERLHYNPGDYAQRELKKSEEALRELQDRMQTAKRQKEEAIDAADPLTALRNLHAQVDFSNDLLLLYRARMALVSLHSDDTRDFRRDVVDLIDDSHQSVQAVHRYAREALPSVQHDVRAMTEVIRQTQQRLIAMQATEAAADAGMRAHLCDMDKAARVLWEEVGALLEKIAENARERGRYAQKCMSLREQRAKEAAAVNAQLQAQSAHCERLCRCEEVLTRWNQAGDVFGKYMDACVPKLLKHLAAVEESDADLAQREAEGYVGCYEQFVYAAEEARAKRCTQADRMRLLQRSTLLNQERASDTMDPDAPAHAQRLDDVSRELDEVQLYLKYLSDMEADRKAEVDPVLRGVLARQTQAQLVTTGEEGEAEKPLPTPGLLEDAPAASTADAKPSLASPSTAAETTKSTSAVPATAAGDGAVVAATTTATTTAPPSLSVTVAHPFVTARLIGLAHESDYISQQGQLLGQEMQAVEAKWTGLRHSRKELQAMEEKYKNGDDIRALLGVEKL”, the “soluble on expression in E. coli” value is listed as “soluble”.

With “MGVVRRGSDVTSHVSSVSGKSAPCLQHFSVIRSIGRGAFGKVCIVQERKTKKYFALKYMNKRRCIEKGVAANVIRELTLLSKMSHPFIVNLWYTFQDGDYMYMVSDLLLGGDLRYHLSQQGKFAEDRAKLYLCEICLAVEYLHEMKIVHRDIKPENILLDEQGHAHLTDLNLATQLEDDQLATSYSGTRPYMAPEIYATYLEIEDGYDSRVDWWALGVCFYEMLRGRTPFEFSSRTKPEEAYVAFRESSIPYPAHWPTDLIQFINSMLKFDKEKRLVGLEAIKKHSYTERIDFKSVFEKKPSPVFIPCKEGLNCDPMYELEERILVSTPIHRRRTNHNNSSGRSSSEPQNAALVEVSKAFIDFSRHNVKIEPNGFVKLN”, the “soluble on expression in E. coli” value is on record as “not soluble”.

As to “MIEPVLENVQPNSAASKAGLQAGDRIVKVDGQPLTQWVTFVMLVRDNPGKSLALEIERQGSPLSLTLIPESKPGNGKAIGFVGIEPKGKASPV”, the “soluble on expression in E. coli” value is given as “soluble”.

With “MQLRYAFRVYPDAGQRLALARAFGCARVVFNDVVRAREDARKAGRPFQTAAGLSRKLITEAKRTAERSWLGEVSAVVLQQSLRDAETAYRNFFASLKGTRKGPRVGPPRYKSRKDARQSIRFTANARWSITDSGRLNLPKIGAVKVKWSRTLPTIPTSVTVIKDAAGRYFASFVVDTDPAADRVRMPDADRTVGIDLGLTHFAVLSDGTKIGSPRFLRRAEKKLKKAQQELSRKQMGSKNRDRARLKVARAHAKVADARREFHHQLSTRLISENQGIAVEDLSVAGLARTRLAKSVHDAGWSSFVGMLKYKAERYGRTLVVIGRFEPTSQTCSTCGVKDGPKPLQVREWTCTACGTVHDRDHNAAINVKQAAGLAASACGAPVRPGAIPAQREETGSHGLPTEPRAALEHHHHHH”, the “soluble on expression in E. coli” value is reported as “not soluble”.

In the case of “MNVTIYDVAREASVSMATVSRVVNGNPNVKPSTRKKVLETIERLGYRPNAVARGLASKKTTTVGVIIPDISNIFYAELARGIEDIASMYKYNIILSNSDQNQDKQLHLLNNMLGKQVDGIIFMSGNVTEEHVEELKKSPVPVVLAASIESTNQIPSVTIDYEQAAFDAVQSLIDSGHKNIAFVSGTLEEPINHAKKVKGYKRALTESGLPVRDSYIVEGDYTYDSGIEAVEKLLEEDEKPTAIFVGTDEMALGVIHGAQDRGLNVPNDLEIIGFDNTRLSTMVRPQLTSVVQPMYDIGAVAMRLLTKYMNKETVDSSIVELPHRIEFRQSTK”, the “soluble on expression in E. coli” value is “soluble”.

As for “MGSDKIHHHHHHMALDGYTDQTMSRQAMRAELLDAETELRLAYAWRDQRDERALHRLITAYMRLAISMASKYRRYGAPMNDLIQEASLGLMKAADKFDPDRGVRFSTYAVWWIKASIQDYVMRNWSLVRTGSTSSQKALFFNMRRVQARLEREASQRGEALDAHQLREMVAHDVGVPLSDVEMMEGRLSGSDFSLNATQSADDEGREWIDALEDDSAQAAEVVEGSLDAARLRGWLVSAMQQLNARERFIVTERKLRDVPRTLESLGEELKLSKERVRQLEAAAFAKMRRSLEAQSREVHHFLL”, the “soluble on expression in E. coli” value is given as “not soluble”.

For the sequence “MLQSNEYFSGKVKSIGFSSSSTGRASVGVMVEGEYTFSTAEPEEMTVISGALNVLLPDATDWQVYEAGSVFNVPGHSEFHLQVAEPTSYLCRYL”, the “soluble on expression in E. coli” value was “soluble”.

In the case of “EAGAPCGRISFALRYLYGSDQLVVRILQALDLPAKDSNGFSDPYVKIYLLPDRKKKFQTKVHRKTLNPIFNETFQFSVPLAELAQRKLHFSVYDFDRFSRHDLIGQVVLDNLLELAEQPPDRPLWRDILEGGSEKADLGELNFSLCYLPTAGLLTVTIIKASNLKAMDLTGFSDPYVKASLISEGRRLKKRKTSIKKNTLNPTYNEALVFDVAPESVENVGLSIAVVDYDCIGHNEVIGVCRVGPEAADPHGREHWAEMLANPRKPVEHWHQLVEEKTLSSFTKGGKGLSEKENSE”, the “soluble on expression in E. coli” value was “soluble”.

These data come from the DeepSol protein solubility set.
